The text below walks through data of article PMC2796082.

What all share (assay): SPR
Test [1] deals with T1, TGF-β2.
T1 sequence (P61812 303-414, species assumed, looked up): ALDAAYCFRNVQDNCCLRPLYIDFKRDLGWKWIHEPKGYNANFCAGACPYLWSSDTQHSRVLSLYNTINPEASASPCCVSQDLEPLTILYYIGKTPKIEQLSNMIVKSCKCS

For test [2], the target named is TGF-β1.
The target in test [3] is T2, TGF-β3.
T2 sequence (P10600 301-412, species assumed, looked up): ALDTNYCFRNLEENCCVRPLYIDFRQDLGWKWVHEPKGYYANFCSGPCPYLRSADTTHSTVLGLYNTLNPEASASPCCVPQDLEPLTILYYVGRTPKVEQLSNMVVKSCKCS

Test [4] has as its target T1, TGF-β2. The source holds these as a separate data set.
Test [5] has as its target TGF-β1. The source holds these as a separate data set.
Test [6] has as its target T2, TGF-β3. The source holds these as a separate data set.

Read-outs that look alike come from different tables or passages of the source.

TGF-β1, sequence (P01137 279-390): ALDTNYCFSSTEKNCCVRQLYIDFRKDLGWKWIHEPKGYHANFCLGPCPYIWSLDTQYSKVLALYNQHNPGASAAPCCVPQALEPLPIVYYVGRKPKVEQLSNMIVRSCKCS

B1: Sol Δ11, soluble betaglycan uromodulin-like domain (domain or fragment)
chain: GPEPSTRCELSPINASHPVQAIPRRGWKEGEDRIPRPKQPIVPSVQLLPDHREPEEVQGGVDIALSVKCDHEKMVVAVDKDSFQTNGYSGMELTLLDPSCKAKMNGTHFVLESPLNGCGTRHRRSTPDGVVYYNSIVVQAPSPGDSSGWPDGYEDLESGDNGFPGDGDEGETAPLSRAGVVVFNCSLRQLRNPSGFQGQLDGNATFNMELYNTDLFLVPSPGVFSVAENEHVYVEVSVTKADQDLGFAIQTCFLSPYSNPDRMSDYTIIENICPKDDSVKFYSSKRVHFPIPHAEVDKKRFSFLFKSVFNTSLLFLHCELTLCSRKKGSLKLPRCVTPDDACTSLDATMIWTMMQNKKTFTKPLAVVLQVDYKENVPSTKDSSPIPPPPPQIFH
What is called Kd is the free concentration of one partner at which half of the binding sites on the other are occupied at equilibrium, for simple one-to-one binding. Higher therefore signals a looser complex. As for B1, the Kd with TGF-β2 [1] worked out at 2200 nM; with TGF-β1 [2] it was 2900 nM; with TGF-β3 [3] it was 4400 nM; with TGF-β2 [4], 2600 nM; in the test with TGF-β1 [5] it was 9700 nM; with TGF-β3 [6], 5800 nM.

B2: Sol Δ10, soluble betaglycan endoglin-like domain (domain or fragment)
chain: GPEPSTRCELSPINASHPVQALMESFTVLSGCASRGTTGLPREVHVLNLRSTDQGPGQRQREVTLHLNPIASVHTHHKPIVFLLNSPQPLVWHLKTERLAAGVPRLFLVSEGSVVQFPSGNFSLTAETEERNFPQENEHLLRWAQKEYGAVTSFTELKIARNIYIKVGEDQVFPPTCNIGKNFLSLNYLAEYLQPKAAEGCVLPSQPHEKEVHIIELITPSSNPYSAFQVDIIVDIRPAQEDPEVVKNLVLILKCKKSVNWVIKSFDVKGNLKVIAPNSIGFGKESERSMTMTKLVRDDIPSTQENLMKWALDNGYRPVTSYTMAPVANRFHLRLENNEEMRDEEVHTIPPELRILLDPDHPPALDNPLFPGEGSPNGGLPFPFPD
Consider B2, for which the Kd with TGF-β1 [5] came to 1900 nM; with TGF-β3 [6] it was 5800 nM.

B3: Recombinant soluble betaglycan (receptor)
chain: GPEPSTRCELSPINASHPVQALMESFTVLSGCASRGTTGLPREVHVLNLRSTDQGPGQRQREVTLHLNPIASVHTHHKPIVFLLNSPQPLVWHLKTERLAAGVPRLFLVSEGSVVQFPSGNFSLTAETEERNFPQENEHLLRWAQKEYGAVTSFTELKIARNIYIKVGEDQVFPPTCNIGKNFLSLNYLAEYLQPKAAEGCVLPSQPHEKEVHIIELITPSSNPYSAFQVDIIVDIRPAQEDPEVVKNLVLILKCKKSVNWVIKSFDVKGNLKVIAPNSIGFGKESERSMTMTKLVRDDIPSTQENLMKWALDNGYRPVTSYTMAPVANRFHLRLENNEEMRDEEVHTIPPELRILLDPDHPPALDNPLFPGEGSPNGGLPFPFPDIPRRGWKEGEDRIPRPKQPIVPSVQLLPDHREPEEVQGGVDIALSVKCDHEKMVVAVDKDSFQTNGYSGMELTLLDPSCKAKMNGTHFVLESPLNGCGTRHRRSTPDGVVYYNSIVVQAPSPGDSSGWPDGYEDLESGDNGFPGDGDEGETAPLSRAGVVVFNCSLRQLRNPSGFQGQLDGNATFNMELYNTDLFLVPSPGVFSVAENEHVYVEVSVTKADQDLGFAIQTCFLSPYSNPDRMSDYTIIENICPKDDSVKFYSSKRVHFPIPHAEVDKKRFSFLFKSVFNTSLLFLHCELTLCSRKKGSLKLPRCVTPDDACTSLDATMIWTMMQNKKTFTKPLAVVLQVDYKENVPSTKDSSPIPPPPPQIFHGLDTLTV
modifications: glycoprotein, devoid of GAG chains
Turning to B3, the Kd with TGF-β2 [4] was 36 nM; in the test with TGF-β1 [5] it was 95 nM; with TGF-β3 [6], 143 nM.
